Reference: US20230227537A1 (VIB VZW, published 2023)

Legend:
[1] = molecular target: SARS-CoV-1 spike, full length, on cells or on pseudotyped virus (SARS-CoV-1, UniProt P59594 14-1255); assay: cell-based or functional assay
SARS-CoV RBD = SARS-CoV RBD (SARS-CoV-1, UniProt P59594 320-502)
[2] = molecular target: SARS-CoV-2 RBD protein Avi-tag biotinylated (AcroBiosystems SPD-C82E9) (SARS-CoV-2, UniProt P0DTC2 330-518)

B1: VHH72_h1 (VHH)
VHH: EVQLVESGGGLVQPGGSLRLSCAASGRTFSEYAMGWFRQAPGKEREFVATISWSGGSTYYTDSVKGRFTISRDNAKNTVYLQMNSLRPEDTAVYYCAAAGLGTVVSEWDYDYDYWGQGTLVTVSS
[1]
  IC50, VSV-dG SARS-CoV-1 spike pseudotype neutralization: 0.491 µg/mL

B2: VHH72_h1(S56A) (VHH)
VHH: EVQLVESGGGLVQPGGSLRLSCAASGRTFSEYAMGWFRQAPGKEREFVATISWSGGATYYTDSVKGRFTISRDNAKNTVYLQMNSLRPEDTAVYYCAAAGLGTVVSEWDYDYDYWGQGTLVTVSS
[1]
  IC50, VSV-dG SARS-CoV-1 spike pseudotype neutralization: 0.045 µg/mL
  fold better neutralization than parental VHH72: 10 fold

B3: VHH72_h1 (E1D) (VHH)
VHH: DVQLVESGGGLVQPGGSLRLSCAASGRTFSEYAMGWFRQAPGKEREFVATISWSGGSTYYTDSVKGRFTISRDNAKNTVYLQMNSLRPEDTAVYYCAAAGLGTVVSEWDYDYDYWGQGTLVTVSS
SARS-CoV RBD
  koff: 0.00219 s⁻¹

B4: SARS VHH-72 (VHH)
VHH: QVQLQESGGGLVQAGGSLRLSCAASGRTFSEYAMGWFRQAPGKEREFVATISWSGGSTYYTDSVKGRFTISRDNAKNTVYLQMNSLKPDDTAVYYCAAAGLGTVVSEWDYDYDYWGQGTQVTVSS
[2]
  IC50: 16 nM
